Experiment [1] addresses Ebola virus (EBOV, Zaire) glycoprotein GP, wild type (Ebola virus (EBOV, Zaire)) (UniProt Q05320).
Experiment [2] deals with Sudan virus (SUDV) glycoprotein GP (Sudan virus (SUDV)) (UniProt Q7T9D9).
For experiment [3] the target is unchanged. The source holds these as a separate data set.

Like-named read-outs stand apart in the source and are kept apart here.

In experiment [1], “H27Q/S52Y/G66R-LC (ADI-15946 light chain triple mutant) (antibody)” showed an IC50, neutralisation of EBOV GP pseudovirus (luciferase, Huh7 cells) of 0.15 µg/mL and an IC90, neutralisation of EBOV GP pseudovirus (luciferase, Huh7 cells) of 0.86 µg/mL.

In experiment [1], “A50Y/S52Y/L54R-LC (ADI-15946 light chain triple mutant) (antibody)” came in with an IC50, neutralisation of EBOV GP pseudovirus (luciferase, Huh7 cells) of 0.15 µg/mL and an IC90, neutralisation of EBOV GP pseudovirus (luciferase, Huh7 cells) of 1.1 µg/mL.

In experiment [2], ADI-15878 (antibody) showed an IC50, neutralisation of SUDV GP pseudovirus (luciferase, Huh7 cells) of 0.04 µg/mL and an IC90, neutralisation of SUDV GP pseudovirus (luciferase, Huh7 cells) of 0.9 µg/mL. The same substance had an IC90, neutralisation of SUDV GP pseudovirus (luciferase, Huh7 cells) in experiment [3] of 0.3 µg/mL.
